For this series, the target named is Carcinoembryonic antigen (CEA) (UniProt P06731 35-685). Nature of the series: electrochemical nanoMIPs-aptamer sandwich assay (SWASV of Pb2+); CEA captured on nanoMIPs electrode; aptamer on MOF-Pb probe; linear 1-1000 ng/mL, LOD 1.4 ng/mL (sensor values, not Kd); CEA in 0.01 M PBS pH 7.4, 1 h on nanoMIPs electrode, PBS/0.05% TWEEN20 wash; MOF-Pb-Apt probe (stored in 10 mM Tris-HCl pH 7.4) 30 min; temperature not stated. The note with it: protein: commercial.
Sequence of Carcinoembryonic antigen (CEA) (P06731 35-685): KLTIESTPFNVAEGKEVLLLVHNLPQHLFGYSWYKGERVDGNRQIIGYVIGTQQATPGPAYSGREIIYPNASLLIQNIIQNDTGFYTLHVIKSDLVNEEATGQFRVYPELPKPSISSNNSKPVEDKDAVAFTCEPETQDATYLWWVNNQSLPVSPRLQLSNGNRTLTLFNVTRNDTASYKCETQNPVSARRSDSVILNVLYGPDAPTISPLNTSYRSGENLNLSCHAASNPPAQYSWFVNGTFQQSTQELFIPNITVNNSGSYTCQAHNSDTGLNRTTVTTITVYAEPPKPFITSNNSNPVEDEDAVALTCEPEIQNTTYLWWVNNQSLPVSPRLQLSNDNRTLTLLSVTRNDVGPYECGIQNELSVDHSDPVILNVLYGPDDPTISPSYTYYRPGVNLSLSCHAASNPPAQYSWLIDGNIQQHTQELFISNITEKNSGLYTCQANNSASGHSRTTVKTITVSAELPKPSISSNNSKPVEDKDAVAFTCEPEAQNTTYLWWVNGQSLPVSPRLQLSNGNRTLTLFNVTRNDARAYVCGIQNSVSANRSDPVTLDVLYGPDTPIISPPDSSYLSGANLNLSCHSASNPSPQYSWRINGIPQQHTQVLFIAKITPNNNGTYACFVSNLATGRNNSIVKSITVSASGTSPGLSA

B1: CEA-specific aptamer (ssDNA)
DNA: ATACCAGCTTATTCAATT
modifications: 5'-phosphate-C6
As for B1, the binding result is reported as “binds”.

The values are drawn from paper PMC12603206, “The sensitive and selective electrochemical detection of carcinoembryonic antigen using a nanoMIPs-aptamer sandwich assay”.
